Data as given in paper PMC9549855.

Molecular target: T1, nucleocapsid protein (N) (vesicular stomatitis virus), P03521
T1 chain: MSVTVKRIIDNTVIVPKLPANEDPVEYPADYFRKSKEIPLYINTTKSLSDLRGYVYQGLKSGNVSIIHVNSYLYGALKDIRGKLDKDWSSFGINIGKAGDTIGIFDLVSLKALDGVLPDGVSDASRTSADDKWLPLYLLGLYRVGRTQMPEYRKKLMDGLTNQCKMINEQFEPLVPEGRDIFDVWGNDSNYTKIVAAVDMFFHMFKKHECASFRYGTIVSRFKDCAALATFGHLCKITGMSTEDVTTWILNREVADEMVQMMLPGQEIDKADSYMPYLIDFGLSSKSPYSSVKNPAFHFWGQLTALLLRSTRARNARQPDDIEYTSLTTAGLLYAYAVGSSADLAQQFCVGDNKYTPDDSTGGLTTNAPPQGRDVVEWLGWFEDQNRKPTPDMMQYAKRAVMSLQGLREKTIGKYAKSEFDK
Test: cryo-EM structure
Settings: remark: other sources report otherwise

B1: matrix protein (M), P03519 1-229 (natural protein)
chain: MSSLKKILGLKGKGKKSKKLGIAPPPYEEDTSMEYAPSAPIDKSYFGVDEMDTYDPNQLRYEKFFFTVKMTVRSNRPFRTYSDVAAAVSHWDHMYIGMAGKRPFYKILAFLGSSNLKATPAVLADQGQPEYHTHCEGRAYLPHRMGKTPPMLNVPEHFRRPFNIGLYKGTIELTMTIYDDESLEAAPMIWDHFNSSKFSDFREKALMFGLIVEKKASGAWVLDSISHFK
Work on B1 yielded a stoichiometry N of 2.
